T1: hexahistidine-tagged human IL-4Rα extracellular domain (human, UniProt P24394 26-232)
T1 construct: In the MSD assay the plate coat is the His-tagged ECD; also called human IL-4Rα ECD; Wild type receptor; not shown: hexahistidine tag
T1 sequence: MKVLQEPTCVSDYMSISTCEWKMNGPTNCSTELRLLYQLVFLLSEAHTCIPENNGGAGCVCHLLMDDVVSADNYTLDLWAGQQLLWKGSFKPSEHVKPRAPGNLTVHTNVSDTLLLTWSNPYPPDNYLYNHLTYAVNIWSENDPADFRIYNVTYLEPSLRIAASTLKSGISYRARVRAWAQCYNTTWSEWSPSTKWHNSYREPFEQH

T2: hexahistidine-tagged cynomolgus monkey IL-4Rα extracellular domain (cynomolgus monkey, UniProt P24394 26-231 (human entry))
T2 construct: also called cynomolgus monkey IL-4Rα ECD; not shown: hexahistidine tag
T2 chain: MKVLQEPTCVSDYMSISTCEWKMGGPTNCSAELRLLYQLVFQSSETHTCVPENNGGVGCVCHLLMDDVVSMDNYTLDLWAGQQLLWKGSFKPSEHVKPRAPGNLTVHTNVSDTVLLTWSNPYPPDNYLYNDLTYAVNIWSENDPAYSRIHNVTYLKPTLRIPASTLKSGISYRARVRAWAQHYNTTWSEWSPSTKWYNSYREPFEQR

T3: human IL-4Rα on cells (human PBMC B cells and CD4+ T cells, Daudi cells, HEK-Blue IL-4/IL-13 cells, myeloid … (human, UniProt P24394 26-825))
T3 sequence: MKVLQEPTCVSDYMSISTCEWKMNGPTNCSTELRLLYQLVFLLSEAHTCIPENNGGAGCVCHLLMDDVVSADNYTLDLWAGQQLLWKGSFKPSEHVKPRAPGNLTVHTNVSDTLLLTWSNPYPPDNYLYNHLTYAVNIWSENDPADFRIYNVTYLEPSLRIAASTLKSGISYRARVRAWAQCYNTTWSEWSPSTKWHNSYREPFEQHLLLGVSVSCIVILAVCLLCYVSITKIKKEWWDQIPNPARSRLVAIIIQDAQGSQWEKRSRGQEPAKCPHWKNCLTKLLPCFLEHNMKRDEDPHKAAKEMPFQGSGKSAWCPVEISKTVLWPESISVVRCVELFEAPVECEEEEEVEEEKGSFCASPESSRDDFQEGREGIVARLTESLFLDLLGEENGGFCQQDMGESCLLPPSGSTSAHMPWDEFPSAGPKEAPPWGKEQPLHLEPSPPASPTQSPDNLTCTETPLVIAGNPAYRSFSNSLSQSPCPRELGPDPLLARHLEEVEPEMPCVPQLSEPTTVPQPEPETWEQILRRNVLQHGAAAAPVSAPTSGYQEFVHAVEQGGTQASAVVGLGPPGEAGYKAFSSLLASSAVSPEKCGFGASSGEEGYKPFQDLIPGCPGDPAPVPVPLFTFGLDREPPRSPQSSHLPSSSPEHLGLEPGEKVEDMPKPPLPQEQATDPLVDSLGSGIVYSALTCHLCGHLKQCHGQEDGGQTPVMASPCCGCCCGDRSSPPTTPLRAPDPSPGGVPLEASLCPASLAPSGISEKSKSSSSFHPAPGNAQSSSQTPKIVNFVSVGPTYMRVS


Columns and labels:
[1] = biological target: T1, hexahistidine-tagged human IL-4Rα …; test: competition MSD ELISA (solution equilibrium, 37 °C), apparent KD, single experiment
Protocol: (§1) Example 3a. […] A 96-well multi-array plate (Meso Scale Diagnostics, Cat. #L15XA-3) was coated at 4° C. overnight with 0.5 μg/mL hexahistidine-tagged human or cynomolgus monkey IL-4Rα ECD in phosphate buffered saline (PBS). Following coating, plates were washed 10 times with 200 μL PBST (PBS with 0.05% Tween® 20) and blocked with 300 μL/well of PBS casein blocking buffer (Pierce, Cat. #37528) at 37° C. for 1 hour. Plates were then washed 10 times as above, and 50 μL of the preincubated antibody:IL-4Rα dilution series was transferred to the wells and incubated at 37° C. with 300 rpm shaking for […]. Plates were washed 10 times with PBST, 50 μL of 1 μg/mL anti-human antibody sulfo-tag 20 (Meso Scale Diagnostics, Cat. #R32AJ-1) was added to the plates for the assay of Table 7a, and anti-Human NHP Kappa Light chain SULFO-TAG 20 (Meso Scale Diagnostics, Cat #D20TF-6) was added to the plates for the assay of Table 7b, and plates were incubated at 37° C. with 300 rpm shaking for 30 minutes. Plates were washed 10 times with PBST, 150 μL/well of 1× Read Buffer T was added to the wells and analyzed on a SECTOR® Imager 6000 (Meso Scale Diagnostics) 15 min after buffer addition. The apparent KD is determined by fitting a sigmoidal curve to the electrochemiluminescence (ECL) response vs. log (soluble IL-4Rα concentration) using GraphPad Prism 9. Data is graphed with normalized ECL values.

[2] = biological target: T2, hexahistidine-tagged cynomolgus monkey …; test: as above
Protocol: as §1

[3] = biological target: T3, human IL-4Rα on cells (human PBMC B …); test: cell-based or functional assay
[4] = biological target: T3, human IL-4Rα on cells (human PBMC B …); test: cell-based or functional assay; remark: listed apart in the source
[5] = biological target: T3, human IL-4Rα on cells (human PBMC B …); test: cell-based or functional assay; remark: listed apart in the source
[6] = biological target: T1, hexahistidine-tagged human IL-4Rα …; test: competition MSD ELISA (solution equilibrium, 37 °C), apparent KD, mean of 3 experiments
Protocol: as §1

Kd [1] | Kd [2] | Inhibition of IL-4 induced STAT6 phosphorylation, B cells, IC50 [3] | Inhibition of IL-4 induced STAT6 phosphorylation, CD4+ T cells, IC50 [3] | Inhibition of IL-13 induced STAT6 phosphorylation in B cells, IC50 [4] | Inhibition of IL-4 induced CD23 Expression on myeloid cells, IC50 [5] | Kd [6] | Binder
0.0208 nM | 0.0233 nM | 0.019 µg/mL | 0.017 µg/mL | 0.03 µg/mL | 8.27 nM | 0.0312 nM | anti-human IL-4Rα antibody Ab1 (antibody, human IgG4 S228P, kappa, human kappa light chain; also called anti-human IL-4Rα Ab1; unconjugated Ab1) heavy: QVQLVESGGGLVQPGGSLRLSCVASGFTFSHSSMNWVRQAPGKGLEWVSYISRATGAVYYADSVKGRFTISRDNAKNSLYLQMNSLRDEDTAVYYCAREPVFDYWGQGTLVTVSSASTKGPCVFPLAPCSRSTSESTAALGCLVKDYFPEPVTVSWNSGALTSGVHTFPAVLQSSGLYSLSSVVTVPSSSLGTKTYTCNVDHKPSNTKVDKRVESKYGPPCPPCPAPEFLGGPSVFLFPPKPKDTLMISRTPEVTCVVVDVSQEDPEVKFNWYVDGVEVHNAKTKPREEQFNSTYRVVSVLTVLHQDWLNGKEYKCKVSNKGLPSSIEKTISKAKGQPREPQVYTLPPSREEMTKNQVSLTCLVKGFYPSDICVEWESNGQPENNYKTTPPVLDSDGSFFLYSRLTVDKSRWQQGNVFSCSVMHEALHNHYTQKSLSLSLG light: DIQMTQSPSAMSASVGDRVTITCRASQDISNYLAWFQQKPGKVPTRLIYAASSLQSGVPSRFSGSGSGTEFTLTISSLQPEDFATYYCLQWSSYPRTFGQGTKVEIKRTVAAPSVFIFPPSDEQLKSGTASVVCLLNNFYPREAKVQWKVDNALQSGNSQESVTEQDSKDSTYSLSSTLTLSKADYEKHKVYACEVTHQGLSSPVTKSFNRGEC
– | – | 0.046 µg/mL | 0.041 µg/mL | 0.064 µg/mL | 10.8 nM | 0.0247 nM | anti-human IL-4Rα Ab1 GC conjugate of Example 1b (n=4) (antibody, human IgG4 S228P, kappa, glucocorticoid receptor agonist payload-linker (GC-L, Preparation 8) conjugated to the engineered cysteines at the 124 and 378 position of the heavy chain (EU numbering); n is 4 (average DAR 4.17 by RP-HPLC, 3.85 by TOF MS)) heavy: QVQLVESGGGLVQPGGSLRLSCVASGFTFSHSSMNWVRQAPGKGLEWVSYISRATGAVYYADSVKGRFTISRDNAKNSLYLQMNSLRDEDTAVYYCAREPVFDYWGQGTLVTVSSASTKGPCVFPLAPCSRSTSESTAALGCLVKDYFPEPVTVSWNSGALTSGVHTFPAVLQSSGLYSLSSVVTVPSSSLGTKTYTCNVDHKPSNTKVDKRVESKYGPPCPPCPAPEFLGGPSVFLFPPKPKDTLMISRTPEVTCVVVDVSQEDPEVKFNWYVDGVEVHNAKTKPREEQFNSTYRVVSVLTVLHQDWLNGKEYKCKVSNKGLPSSIEKTISKAKGQPREPQVYTLPPSREEMTKNQVSLTCLVKGFYPSDICVEWESNGQPENNYKTTPPVLDSDGSFFLYSRLTVDKSRWQQGNVFSCSVMHEALHNHYTQKSLSLSLG light: DIQMTQSPSAMSASVGDRVTITCRASQDISNYLAWFQQKPGKVPTRLIYAASSLQSGVPSRFSGSGSGTEFTLTISSLQPEDFATYYCLQWSSYPRTFGQGTKVEIKRTVAAPSVFIFPPSDEQLKSGTASVVCLLNNFYPREAKVQWKVDNALQSGNSQESVTEQDSKDSTYSLSSTLTLSKADYEKHKVYACEVTHQGLSSPVTKSFNRGEC

From US20240100176A1 (Eli Lilly, published 2024)
